Several values for one entry are separate records, joined by “and”; a condition that tells them apart may be missing. Equal values may be shown once.

The target in experiment [1] is T1, cynomolgus monkey CD137 on cells (cynomolgus monkey, UniProt A9YYE7 24-254).
T1 construct: whole, on cells; also called CHO-cynomolgus monkey CD137
The experiment in a line: flow cytometry on CHO-cynomolgus monkey CD137 cells, PE anti-human IgG-Fc. On the procedure: (§1) CHO cells over-expressing human or cynomolgus monkey CD137 and CHO parental cells were harvested by centrifugation at 1000 g for 3 minutes. The cells were resuspended in ice cold assay buffer at 2*10\hat{ }6/mL and transferred to 96-well V-bottom plate with 100 μL/well. […] The plate was mixed and incubated in the dark for 2 hours at 4° C. The cells were washed 3 times by centrifugation at 1000 g for 3 min and resuspended in ice cold assay buffer containing goat F(ab′)₂ anti-human IgG-Fc (PE), 100 μL/well. The plate was incubated in the dark for another 1 hour at 4° C. The cells were washed 2 times by centrifugation at 1000 g for 3 min and resuspended in ice cold assay buffer containing 2% PFA. The cells were then subjected to the flow cytometer immediately.
(§2) Mean fluorescence intensity (MFI) was calculated from the total cell population in the FCM experiments. Graphpad 7.0, “[Agonist] vs. response—Variable slope (four parameters)” was used to plot the binding MFI in dose response and to calculate FCM binding EC₅₀ values.
Background: A flow cytometer gives signals particle by particle.

The target of the next experiment is T2, Ly051.
T2 chain: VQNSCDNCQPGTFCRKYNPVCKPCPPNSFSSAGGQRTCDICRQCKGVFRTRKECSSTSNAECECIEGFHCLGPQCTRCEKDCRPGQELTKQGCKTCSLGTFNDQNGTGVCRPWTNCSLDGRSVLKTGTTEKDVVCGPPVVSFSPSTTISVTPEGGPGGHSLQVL
The experiment is described as follows: ELISA, CD137 protein coated, clone 3712 titrated; flat curve, fit marked ~ (see non_binding). The procedure: (§3) For the data shown in FIGS. 16C-D, chimeric CD137 receptor protein samples were diluted in DPBS to 5 μg/mL and then coated onto an ELISA plate (Corning, Catalog number: 9018, high binding) at 50 μL (0.25 μg) per well, and incubated at 4° C. overnight. The plate was decanted and washed once; assay diluent was added at 200 μL/well. After a 1-hour incubation at room temperature, the plate was washed with PBST one time. […] The plate was incubated 1 hour at room temperature and then washed three times with PBST. Goat anti-human IgG-H+L HRP-conjugated at 1:100,000 dilution or goat anti-mouse IgG (H+L) secondary antibody, HRP, 10 at 1:50,000 dilution was added to the plate at 100 μL/well. The plate was incubated 1 hour at room temperature followed by washing with PBST four times. The TMB substrate solution was added 100 μL/well. The color was permitted to develop for 15 minutes and then 100 μL/well 2N H2SO4 was added to terminate the reaction. Absorbance at 450 nm and 620 nm was determined by a Tecan F200 Pro reader.
For orientation: In an ELISA, binding on a coated surface is turned into a signal by an enzyme label.

The target of the next experiment is T3, Ly049.
T3 chain: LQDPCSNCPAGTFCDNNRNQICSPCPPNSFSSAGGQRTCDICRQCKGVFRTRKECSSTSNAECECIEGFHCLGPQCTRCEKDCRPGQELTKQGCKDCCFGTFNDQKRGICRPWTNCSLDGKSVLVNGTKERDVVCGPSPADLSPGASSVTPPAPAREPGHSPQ
The experiment is described as above. The procedure:
as §3

The target in the next experiment is T4, Ly110.
T4 chain: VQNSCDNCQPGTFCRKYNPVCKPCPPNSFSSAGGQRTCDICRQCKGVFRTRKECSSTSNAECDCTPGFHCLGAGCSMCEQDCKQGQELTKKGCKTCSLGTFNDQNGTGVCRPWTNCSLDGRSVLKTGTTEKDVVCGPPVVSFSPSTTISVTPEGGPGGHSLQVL
The experiment is described as follows: ELISA, clone 3712-IgG1v coated, CD137 protein titrated (EC50 is a concentration of the CD137 protein); full sigmoid, plateau about 1.9. On the procedure: (§4) The plate was decanted and washed once; assay diluent was added 200 μL/well. After one-hour incubation at room temperature, the plate was washed with PBST one time. CD137 receptor human/mouse chimeras were diluted in assay diluent to 100 or 10 μg/mL, and then a 4-fold serial dilution in assay diluent for 11 points to final concentrations of 100000, 25000, 6250, 1562.5, 390.63, 97.66, 24.41, 6.10, 1.53, 0.38 and 0.095 ng/mL or 10000, 2500, 625, 156.25, 39.06, 9.77, 2.44, 0.61, 0.15, 0.038 and 0.0095 ng/mL. The diluted CD137 receptor was added to the assay plate, 50 μL/well, in duplicate. The plate was incubated one hour at room temperature and then washed three times with PBST. Goat anti-human IgG-H+L HRP conjugated at 1:100,000 20 dilution was added to the plate at 100 μL/well. The plate was then incubated one hour at room temperature followed by washing with PBST four times. The TMB substrate solution was added at 100 μL/well. The color was allowed to develop for 15 minutes, and was stopped with 100 μL/well 2N H2SO4. Absorbance at 450 nm and 620 nm was determined by a Tecan F200 Pro reader.

For a further experiment, the target named is T5, human CD137 on cells (human, UniProt Q07011 24-255).
T5 construct: whole, on cells; also called CHO-human CD137; CHO cells over-expressing human CD137
The experiment is described as follows: flow cytometry on CHO cells over-expressing human CD137; average, n=6. On the procedure: as §1, §2

In another experiment the target is T6, Ly052.
T6 chain: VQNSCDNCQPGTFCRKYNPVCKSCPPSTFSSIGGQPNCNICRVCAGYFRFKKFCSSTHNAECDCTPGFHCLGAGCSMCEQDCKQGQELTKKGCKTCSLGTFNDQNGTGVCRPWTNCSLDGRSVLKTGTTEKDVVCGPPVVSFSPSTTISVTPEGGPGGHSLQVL
The experiment is described as follows: ELISA, clone 3712-IgG1v coated, CD137 protein titrated (EC50 is a concentration of the CD137 protein); curve rises only above about 1000 ng/mL to about 0.61 at 100000 ng/mL, no plateau seen. The procedure:
as §4

T5 sequence (Q07011 24-255): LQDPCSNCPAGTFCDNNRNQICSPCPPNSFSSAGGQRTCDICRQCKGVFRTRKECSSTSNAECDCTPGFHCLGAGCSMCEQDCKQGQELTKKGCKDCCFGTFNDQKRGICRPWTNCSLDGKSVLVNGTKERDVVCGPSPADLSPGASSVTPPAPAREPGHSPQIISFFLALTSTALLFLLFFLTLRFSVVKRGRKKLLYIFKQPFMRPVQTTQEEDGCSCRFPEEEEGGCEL
T1 sequence (A9YYE7 entry or part of it): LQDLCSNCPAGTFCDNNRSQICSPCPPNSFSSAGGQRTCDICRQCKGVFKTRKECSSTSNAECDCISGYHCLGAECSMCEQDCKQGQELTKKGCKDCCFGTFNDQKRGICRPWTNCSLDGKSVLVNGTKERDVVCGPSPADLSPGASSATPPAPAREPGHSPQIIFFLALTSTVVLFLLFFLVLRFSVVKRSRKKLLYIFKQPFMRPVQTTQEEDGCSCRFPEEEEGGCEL

B1: Clone 3712-IgG1v (IgG1v/kappa) (antibody)
heavy: QVQLVQSGAEVKKPGASVKVSCKASGYTFAGFEMHWVRQAPGQGLEWMGAIDPKTGGTDYNQKFKDRVTMTRDTSISTAYMELSRLRSDDTAVYYCARDLGYFDVWGQGTLVTVSSASTKGPSVFPLAPSSKSTSGGTAALGCLVKDYFPEPVTVSWNSGALTSGVHTFPAVLQSSGLYSLSSVVTVPSSSLGTQTYICNVNHKPSNTKVDKKVEPKSCDKTHTCPPCPAPELLGPSVFLFPPKPKDTLMISRTPEVTCVVVDVEHEDPEVKFNWYVDGVEVHNAKTKPREEQYNSTYRVVSVLTVLHQDWLNGKEYKCKVSNKALPAPIEKTISKAKGQPREPQVYTLPPSREEMTKNQVSLTCLVKGFYPSDIAVEWESNGQPENNYKTTPPVLDSDGSFFLYSKLTVDKSRWQQGNVFSCSVMHEALHNHYTQKSLSLSPGK
light: DIQMTQSPSSLSASVGDRVTITCRASQDIRSNLNWYQQKPGGAVKLLIYYTSRLHSGVPSRFSGSGSGTDYTLTISSLQPEDFATYFCQQSEKLPRTFGGGTKVEIRRTVAAPSVFIFPPSDEQLKSGTASVVCLLNNFYPREAKVQWKVDNALQSGNSQESVTEQDSKDSTYSLSSTLTLSKADYEKHKVYACEVTHQGLSSPVTKSFNRGEC
notes: copies: 2 + 2
As usually defined, the EC50 (read off the curve) is the concentration needed to bring the measured effect to its halfway point. The term EC50 denotes the concentration giving half of the maximal effect. B1: in experiment [1], the “EC50 (read off the curve)” value is around 30 ng/mL. The 50% effective concentration (EC50) in the experiment with Ly051 was around 1.01 ng/mL; with Ly049, around 0.903 µg/mL; in the experiment with Ly110 it was 0.101 µg/mL; with human CD137 on cells it was 0.35 nM and 0.0497 µg/mL; with Ly052, 29.5 µg/mL.

These data come from patent US20210246218A1 (LYVGEN BIOPHARMA SUZHOU, published 2021).
